Five molecules from patent publication US20260049134A1 (UNIVERSITY OF FLORIDA RESEARCH FOUNDATION, published 2026) can be followed below.

Numbering of substitutions follows the chain as printed. Names may count otherwise.

Test [1] concerns the target T1, ICAM1, endogenous in H929 multiple myeloma cells (human, UniProt P05362 28-532).
T1 construct: Native protein on H929 cells (flow cytometry, siRNA knockdown) and in H929 lysates (IP/MS); also called CD54
As to the kind of experiment: flow cytometry, H929 + vehicle; None 513.

In test [2] the target is T1, ICAM1, endogenous in H929 multiple …. As to the kind of experiment: flow cytometry, IgG1 on H929 cells. The method, then:
Staining protocol. Cells were harvested (5×10⁴ cells per sample), washed once with phosphate-buffered saline (PBS) at RT, and a second time with ice-cold FACS buffer (PBS, 0.5% BSA, 2 mM EDTA, 0.1% NaN₃). Cells were stained in 50 μL of primary antibody for 30 min on ice, washed twice with 100 μL FACS buffer, stained with 50 μL of diluted secondary antibody, washed two more times in FACS, and then resuspended in 50 μL FACS buffer. Samples were acquired on an Accuri C6 Plus or a BD FACSCanto II flow cytometer (both from BD Biosciences). Data were analyzed using FlowJo version 10 software. Primary antibodies: Fab (10 μg/mL), IgG1 (0.1 to 50 μg/mL), or 25 μL polyclonal Fabs from periplasmic extracts. Polyclonal Fabs were produced by diluting bacterial stocks by a factor of 100 in autoinduction media and incubating overnight to induce expression as previously described. […] Viability stains: DAPI (Cell Signaling Technology) or SYTOX AADvanced Dead Cell Stain (Thermo Fisher Scientific). Labeling: The panel of chimeric rabbit/human IgG1s was labeled using the Alexa Fluor 647 Labeling Kit (Thermo Fisher Scientific, #A20173) to facilitate single-step staining. Competition: Unlabeled IgG1s were added at saturating concentrations of 60 μg/mL to block the target receptors, incubating on ice for 30 min, followed by the addition of an equal volume of the Alexa Fluor 647 labeled antibody at 2 μg/mL, and the mixture was incubated on ice for another 30 min.

In test [3] the target is T2, GARS, endogenous in H929 multiple myeloma cells (human, UniProt P41250 37-739, limits assumed).
T2 construct: Native protein pulled down from H929 lysates; also called Glycyl-tRNA synthetase; GlyRS
T2 sequence: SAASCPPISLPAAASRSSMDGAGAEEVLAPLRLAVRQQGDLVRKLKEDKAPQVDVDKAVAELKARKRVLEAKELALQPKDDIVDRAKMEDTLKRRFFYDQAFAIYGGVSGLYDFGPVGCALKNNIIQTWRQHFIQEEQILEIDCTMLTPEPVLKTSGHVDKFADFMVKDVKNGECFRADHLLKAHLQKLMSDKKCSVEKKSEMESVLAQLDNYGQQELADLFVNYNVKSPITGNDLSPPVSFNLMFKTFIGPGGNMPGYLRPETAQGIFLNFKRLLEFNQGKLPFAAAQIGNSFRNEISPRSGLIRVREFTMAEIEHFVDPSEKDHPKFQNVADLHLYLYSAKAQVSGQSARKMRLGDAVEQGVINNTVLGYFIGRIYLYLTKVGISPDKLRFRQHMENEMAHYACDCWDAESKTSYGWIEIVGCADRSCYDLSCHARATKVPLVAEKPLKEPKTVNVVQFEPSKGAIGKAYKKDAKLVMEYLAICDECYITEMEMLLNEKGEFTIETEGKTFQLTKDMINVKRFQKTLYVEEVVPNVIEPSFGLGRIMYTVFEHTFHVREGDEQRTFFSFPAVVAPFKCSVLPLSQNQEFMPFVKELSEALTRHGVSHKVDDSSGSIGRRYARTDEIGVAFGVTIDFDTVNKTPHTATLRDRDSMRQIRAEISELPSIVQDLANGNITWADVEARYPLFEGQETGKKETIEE
As to the kind of experiment: IP from H929 cell lysate, LC-MS/MS. The method, then:
(§1) Immunoprecipitation. […] After 30 min of rocking at 4° C., and lysates were centrifuged at 18,400×g for 20 min at 4° C. Subsequently, 1-mL aliquots of the supernatants were pre-cleared twice with Protein G agarose (Thermo Fisher Scientific) by adding 50 μL of 50% resin slurry and incubating 30 min with end-over-end tumbling at 4° C., followed by centrifugation at 16,000×g for 5 min and pooling of the pre-cleared cell lysate aliquots. Representative mAbs from each cluster were immobilized on Protein G agarose at a ratio of 25 μg IgG1 per 30 μL of 50% slurry, diluted to 500 μL with Dulbecco's PBS (DPBS) and incubated for 1 h at 4° C. with tumbling, followed by centrifugation at 5,000×g for 30 s and 2 washes with lysis buffer. After the last wash, the ˜15 μL of IgG1-coated resin was blocked with 10 μL of 10% BSA (MilliporeSigma). Next, 1 mL of the pooled pre-cleared cell lysate was added to the IgG1-coated resin and incubated for 3 h at 4° C. with tumbling. […] Finally, 16 μL of the eluate (˜20%) was analyzed on a reducing SDS-PAGE gel stained with SYPRO Ruby dye (Bio-Rad Laboratories), while the rest was stored at −80° C. prior to LC-MS/MS analysis. […]

The target of test [4] is T2, GARS, endogenous in H929 multiple …. As to the kind of experiment: IP from H929 cell lysate, LC-MS/MS, spectral counts. The method, then: as §1

T1 sequence (P05362 28-532 limits assumed): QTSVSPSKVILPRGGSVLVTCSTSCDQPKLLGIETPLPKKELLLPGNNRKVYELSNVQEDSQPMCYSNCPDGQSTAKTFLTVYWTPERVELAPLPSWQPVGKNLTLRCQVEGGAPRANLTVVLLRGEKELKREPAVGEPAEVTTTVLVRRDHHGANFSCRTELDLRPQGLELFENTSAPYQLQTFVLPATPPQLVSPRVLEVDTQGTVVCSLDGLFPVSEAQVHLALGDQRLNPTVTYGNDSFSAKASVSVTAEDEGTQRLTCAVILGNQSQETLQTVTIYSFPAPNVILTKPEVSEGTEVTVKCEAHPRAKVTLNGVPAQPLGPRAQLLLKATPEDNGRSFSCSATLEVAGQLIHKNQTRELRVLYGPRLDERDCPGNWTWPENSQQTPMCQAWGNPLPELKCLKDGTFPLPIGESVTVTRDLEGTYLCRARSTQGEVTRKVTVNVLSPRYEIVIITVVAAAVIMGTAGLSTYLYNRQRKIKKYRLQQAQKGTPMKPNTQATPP

B1: TH9-0022 (antibody, human IgG1, kappa, L234A L235A, V domains shown)
VH: QSLEESGGRLVTPGTPLTLTCTVSGFSLSSYAMNWVRQAPGKGLEWIGIINSYGSTYYASWAKGRFTISKTSTTVDLKITSPTTEDTATYFCARVTYDSYGYGYAPYGMDLWGPGTLVTVSS
VL: LVMTQTPSSTSNAVGGTVTIKCQASQSIGNVLAWYQQKPGQPPKLLIYAASTLASGVPSRVGGSRSGTEYTLTISGVQREDAATYYCLGSDSDSDIAFGGGTELEILR
notes: also called TH9-022; negative control
With B1, the “mAb binding (MFI)” value in test [1] stood at 595.

B2: TH9-0022 (antibody, human IgG1, kappa, L234A L235A, V domains shown)
VH: B1 VH
VL: B1 VL
notes: also called TH9-022; negative control IgG1
With B2, the “antibody-bound positive cells (%)” value in test [2] turned out to be 2.7%. Moreover, the binding result in test [3] was “no binding”.

B3: HW-1 chimeric rabbit-human IgG1 LA/LA/PG (antibody, V domains shown)
VH: QSLEESGGGLFKPTDTLTLTCTASGFSLGSSYAISWVRQAPGKELEWIGTIDSGRAYYARWAKSRSTITRNTNENTVTLKMTSLTAADTATYFCARDLIPTYSQDIWGPGTLVTISS
VL: SFVLTQPASVQVNLGQTVSLTCTADTLSRRYASWYQQKPGQAPVLLIYRDTSRPSGVPDRFSGSSSGNTATLTISGAQAGDEADYYCATSDGSGNSYQYVFGGGTQLTVTS
notes: Fc-silenced (L234A/L235A/P329G) IgG1, lambda; Alexa Fluor 647-labeled in single-step flow cytometry; Prototype of cluster C-1
Regarding B3, the binding result in test [3] was “no binding”.

B4: HW-113 chimeric rabbit-human IgG1 LA/LA/PG (antibody, V domains shown)
VH: QKQLVESGGGLVQPGGSLTLTCTVSGFSLNKYYMGWFRQAPGKGLEWIGVISRSGDTYYSSWAKGRFTISKASTTVDLRITSPTTEDTATYFCARDASSPGFHGDRLDLWGQGTLVTVSS
VL: B3 VL with R30S, S93I, N95S, S96N, Q98L, Y99W, S111G
notes: Fc-silenced (L234A/L235A/P329G) IgG1, lambda; Alexa Fluor 647-labeled in single-step flow cytometry
Turning to B4, in test [2], the “antibody-bound positive cells (%)” value stood at 95.8%. For the same molecule, in test [1], the “mAb binding (MFI)” value turned out to be 49100. For the same molecule, the binding result in test [4] is given as “no binding”.

B5: HW-101 chimeric rabbit-human IgG1 LA/LA/PG (antibody, V domains shown)
VH: QEQLVESGGRLVTPGTPLTLTCKASGFSLGKYDMSWVRQAPGKGLEWIGTIYAGSGSTWYASWAKGRFTISKTSTTVDLKMTSLTTEDTATYFCARDFLGVNSIWGPGTLVTISS
VL: B3 VL with R30S, G40D, Y48H, S65N, N95S, S96N, Y97F, Q98H, Y99F, S111G
notes: Fc-silenced (L234A/L235A/P329G) IgG1, lambda; Alexa Fluor 647-labeled in single-step flow cytometry; Cluster C-97
Turning to B5, the binding result in test [4] is “no binding”.
